From publication PMC12017343, “Extended repertoire of CXC chemokines acting as agonists and antagonists of the human and murine atypical chemokine receptor ACKR2” (Journal of Leukocyte Biology, 2025)

T1: mouse ACKR2 N-terminally fused with the NanoLuc (mouse, UniProt O08707 1-378)
T1 construct: atypical chemokine receptor 2 (ACKR2), mouse; also called mACKR2; NanoLuc-ACKR2; source: HEK293T, stably expressing (pIRES-puromycin vector), on cells; not shown: NanoLuc, N-terminal, kept
T1 sequence (looked up): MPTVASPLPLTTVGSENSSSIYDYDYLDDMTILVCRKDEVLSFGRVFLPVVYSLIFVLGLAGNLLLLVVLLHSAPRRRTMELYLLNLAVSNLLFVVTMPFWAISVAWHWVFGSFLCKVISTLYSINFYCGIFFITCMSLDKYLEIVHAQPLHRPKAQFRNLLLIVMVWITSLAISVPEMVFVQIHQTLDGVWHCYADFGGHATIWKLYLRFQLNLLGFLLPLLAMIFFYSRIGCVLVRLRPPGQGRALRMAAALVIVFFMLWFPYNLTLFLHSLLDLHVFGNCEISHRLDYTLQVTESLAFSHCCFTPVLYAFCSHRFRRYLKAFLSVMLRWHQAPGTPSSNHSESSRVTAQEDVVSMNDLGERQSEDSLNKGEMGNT

B1: mouse CXCL10 (ligand, UniProt P17515 22-98, looked up)
chain: IPLARTVRCNCIHIDDGPVRMRAIGKLEIIPASLSCPRVEIIATMKKNDEQRCLNPESKTIKNLMKAFSQKRSKRAP
notes: CXCL10, mouse, native chemokine; source: bought: Protein Foundry
B2: mouse CXCL5 (ligand)
chain: APSSVIAATELRCVCLTVTPKINPKLIANLEVIPAGPQCPTVEVIAKLKNQKEVCLDPEAPVIKKIIQKILGSDKKKAKRNALAVERTASVQ
modifications: The paper prints no limits. The full-length mature chain after the signal peptide was taken for the 'native' chemokine (Protein Foundry); the commercial form could instead be GCP-2(1-78), 41-118, or …
B3: mouse CXCL11 (ligand, UniProt Q9JHH5 22-100, looked up)
chain: FLMFKQGRCLCIGPGMKAVKMAEIEKASVIYPSNGCDKVEVIVTMKAHKRQRCLDPRSKQARLIMQAIEKKNFLRRQNM
notes: CXCL11, mouse, native chemokine; source: bought: Protein Foundry

Molecular target: T1, mouse ACKR2 N-terminally fused with the …
Assay: FRET or BRET; NanoBRET competition binding, concentration-response: increasing chemokine (highest 300 nM) against LIH222-AZ594 (5 nM for human, 10 nM for mouse) on HEK293T cells expressing NanoLuc-ACKR2; 2 h on ice
Settings: one partner purified

| Binder | pIC50 |
| --- | --- |
| B1 | ≤ 8.01 |
| B2 | ≤ 8.51 |
| B3 | ≤ 7.04 |
